Assay: yeast display, Sf9 membrane polyspecificity reagent, FACS + sequencing; frameworks hold sequencing errors
Outline: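 Sorting gates, low and high (top ~1%), were placed on anti-HA fluorescence to track expression and on streptavidin fluorescence to track reagent binding. A clone's polyreactivity label is taken from the gate it came out of. The reagent was 10% biotinylated, detergent-solubilized Sf9 membrane, applied for 1 hour at 4 °C to galactose-induced yeast display cells.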

Row | Sequence | polyreactivity (PSR sort gate)
1 | QVQLVESAGGLVQAGGSLRLSCDASGRTFRYYVMGWYRQAPGNERELVAAISWSGCRTNYADSVKGRYTISGDNAKNTVYLQMNSLKPEDSAVYYCNAPRPALRRYDYWGQGTQVTVSS | high polyreactivity
2 | QVQLVESGGGLVQAGGSLRLSCAASGFIFGYYAMGWYRQAPGKERELVAAITSGTSTNYADSVKGRFTISRDNAKYTVYLQMNSLKPDDTAVYYCAADRWRRRFYYWGQGTQVTVSS | high polyreactivity
3 | QVQLEESGGGLVQAGGSLRLSCAASGFTFARNGMGWYRQAPVKESEFVAAITRSGGRTYYADSVKGRFTISRDNAKNTVYLQMNSLKPEDTAVYYCAAATSYGKSEYDYWGQGTQVTVSS | high polyreactivity
4 | QVQLVESGGGLVQAGGSLRLSCAASGSTFRFYAMGWYRQAPGKERELVAAITGSGGRTYYADSVKGRFTISRDNAKNTVYLQMNSLKPEDTAVYYCSARAYWLTGLTFSYKYNYWGQGTQVTVSS | high polyreactivity
5 | QVQLVESGGGLVQAGGSLRLSCAASGSNFGDNPMGWYRQAPGKERELVAAISSSGDSTYYADSVKGRFTISRDNAKNTVYLQMNSLKPEDTAVYYCADDRGSTAGSVTYTPGNYWGQGTQVTVSS | low polyreactivity
6 | QVQLVESGGGLVQAGGSLRLSCAASGSTFNGYTMGWYRQAPGKEREFVATITFSDGSTYYADSVKGRFTISRDNAKNTVYLQMNSLKPEDTAVYYCNVDSPIGYDYWGQGTQVTVSS | low polyreactivity
7 | QVQLVESGGGLVQAGGSLLLSCAASGLTFVANAMGWYSQAPGKERELVARISSSGGSTYYADSVKGRFTISRDNAKNTVYLQMNSLKPEDTAVYYCTARAVRWYYSMNYWGQGTQVTVSS | high polyreactivity
8 | QVQLVESGGGVVQAGGSLRLSCAASGRIISYNAMGWYRQAPGKERELVAAISWGGGSTYYADSVKGRFTISRDNAKNTVYLQMNSLKPEDTAVSYCAKGWYRIKRNDYWGQGTQVTVSS | low polyreactivity
9 | QVQLVESGGGLVQAGGSLRLSCAASGRIFPYYDMGWYRQAPGKERELVAAITSSGSTFYADSVKGRFTISRDNAKNTVYLQMNSLKPEDTAVYYCNTRDIRVRPYDYWGQGTQVTVSS | low polyreactivity
10 | QVQLVESGGGLVQAGGSLRLSCAASGRTFYYNAMGWSRQATGKERELVAAISGRAGSTYYADSVKGRYTISRDNAKNTVYLQMNSLKPEDTAVYYCNAVRYKYTGRFGYWGQGTQVTVSS | high polyreactivity
11 | QVQLVESGGGLVQAGGSLRLSCAASGIIFQAYAKGWYRQAPGKERELVAAISYSGGSTYYAESVKGRFTISRDNAKNNVDLQMNRLKPEVTAVYYCAAELYRYWFDMYYWGQGTQVTVSS | low polyreactivity
12 | QVQLVESGGGLVQAGGSLRLTCAASGFTFGSYAMGWNRQAPGKERELVAVITRSGRTNYADSVKGRFTISRDNAKNTVYLQMNSLKPEDTAVYYCNADDVDDEVSPDLTEMDYWGQGTQVTVSS | low polyreactivity
13 | QVQLVESGGGIVLAGGSLRLSCAASGSIYYANAMGWYRQAPGKERELVAVISSGGSTYYADSVNGRFTISRDNAKNTVYLHMNSLKPEDTAVYYCAAETYYYVLPHWYKYKYGYWGQGTQVTVSS | low polyreactivity
14 | QVQLVESGGGLVQAGGSLRLSCAASGLIIWLYTMGWYRQAPGKERELVAAIDWSGGSTYYADSVKGRFTISRDNAKNTDYLQMNSLKPEDTAVYYCAADPEPSYRFDYCGQGTQVTVSS | low polyreactivity
15 | QVQLVESGGCLVQAGGSLRLSCAASRSTFSYNAMGWYRHAPRKERELVASSSTSGGSTYYADSVKGRFSISRDNAKNTVYLQINSLTPEDTAVYYCNAPTSDIYSDFDYWGQGTQVTVSS | low polyreactivity
16 | QVQLVDSGGGLVQAGGSLRLSCAASGLIFPYNAMGWYRQAPGKERELVAAIDSGVTTYYADSVKGRFTISRDNAKNTVYLQMNSLKPEDTAVYYCAAVGLPGPEGDSWGQGTQVTVSS | low polyreactivity

— the nanobody polyreactivity screen of Harvey et al. (2022)
